{
  "source": "patent US20060019335A1",
  "about": "“Compositions and methods to promote c-IAP autodegradation” (priority 2004, published 2006)",
  "molecules": {"B1": {"name": "Smac: wild type (WT) Smac polypeptide from Homo sapiens, SEQ ID NO 1, 239 amino acids; second mitochondria-derived activator of caspase (protein, listed as Homo sapiens)", "chain": "MAALKSWLSRSVTSFFRYRQCLCVPVVANFKKRCFSELIRPWHKTVTIGFGVTLCAVPIAQKSEPHSLSSEALMRRAVSLVTDSTSTFLSQTTYALIEAITEYTKAVYTLTSLYRQYTSLLGKMNSEEEDEVWQVIIGARAEMTSKHQEYLKLETTWMTAVGLSEMAAEAAYQTGADQASITARNHIQLVKLQVEEVHQLSRKAETKLAEAQIEELRQKTQEEGEERAESEQEAYLRED"}},
  "target": "XIAP (Homo sapiens, UniProt P98170)",
  "sequence (P98170 whole entry)": "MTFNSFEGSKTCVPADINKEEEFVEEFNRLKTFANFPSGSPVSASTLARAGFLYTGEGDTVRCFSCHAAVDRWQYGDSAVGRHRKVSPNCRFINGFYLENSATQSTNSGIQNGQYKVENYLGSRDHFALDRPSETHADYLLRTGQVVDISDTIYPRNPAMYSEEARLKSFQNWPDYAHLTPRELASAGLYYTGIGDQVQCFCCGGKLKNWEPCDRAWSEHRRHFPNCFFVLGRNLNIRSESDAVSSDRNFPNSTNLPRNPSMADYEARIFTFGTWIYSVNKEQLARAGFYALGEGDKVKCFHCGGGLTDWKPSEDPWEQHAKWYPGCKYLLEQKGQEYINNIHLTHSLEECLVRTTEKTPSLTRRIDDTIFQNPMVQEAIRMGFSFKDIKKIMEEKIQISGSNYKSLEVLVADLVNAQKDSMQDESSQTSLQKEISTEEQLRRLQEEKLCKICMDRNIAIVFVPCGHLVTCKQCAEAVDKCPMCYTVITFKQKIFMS",
  "experiment": "In vitro ubiquitylation assay of purified XIAP",
  "assay_type": "biochemical",
  "procedure": "In vitro ubiquitylation assays—In vitro ubiquitylation assays were carried out as previously described (29). IAP proteins (200 nM) were incubated with or without Smac polypeptide for 2 hours at 30° C. in a reaction system containing 50 mM Tris-HCl (pH 7.5), 50 mM NaCl, 2 mM Mg-ATP, 20 μM mammalian ubiquitin, 100 nM rabbit ubiquitin-activating enzyme (E1) and 400 nM of recombinant human ubiquitin-conjugating enzymes (E2). The reactions were stopped by adding equal volumes of 2×SDS sample loading buffer followed by Western Blot analysis.\nTo determine whether Smac promotes auto-ubiquitylation of XIAP, purified XIAP (without tag) was incubated for 2 hours at 30° C. either with or without different concentrations of Smac or with Smac ΔA in the reconstituted ubiquitylation reaction system (Ub Mix) consisting of 50 mM Tris-HCl (pH 7.5), 50 mM NaCl, 2 mM Mg-ATP, 20 μM mammalian ubiquitin, 100 nM rabbit ubiquitin-activating enzyme (E1) and 400 nM UbCH6 (E2). The reactions were stopped by adding equal volumes of 2×SDS sample loading buffer and the products were subjected to SDS-PAGE followed by immunoblotting with anti-XIAP antibody. The purified XIAP was active in directing poly-ubiquitylation. But the auto-ubiquitylation of XIAP was not enhanced by Smac.",
  "data": [
    {"molecule": "B1", "values": [
      {"measurement": "amount of ubiquitylated forms of XIAP with a high molecular weight of ~150 kDa", "setting": "UbCH6 as E2, FIG. 6", "result": "slightly reduced"},
      {"measurement": "auto-ubiquitylation of XIAP in vitro", "setting": "purified XIAP without tag, UbCH6 as E2, 2 hours at 30° C., FIG. 6", "result": "not enhanced"}
    ]}
  ]
}
